Starred links: 1 amine or outer side, 2 acyl side, 3 side chain; linkers in the order of their positions; H or OH if unused. Non-standard residues stand in square brackets, D forms with d. Groups on a side chain read outwards from the residue. No end group written: not given here. *: point of attachment. γGlu = O=C(O)[C@H](CCC(=O)[*:2])N[*:1]; Stearoyl = CCCCCCCCCCCCCCCCCC(=O)*; αMeF = C[C@](N)(Cc1ccccc1)C(=O)O; αMeK = C[C@](N)(CCCCN)C(=O)O; αMeS = C[C@](N)(CO)C(=O)O; Aib = CC(C)(N)C(=O)O; Ahx = NCCCCCC(=O)O
Tests used:
Test in all cases: cell-based or functional assay
glucagon receptor (GCGR) = glucagon receptor (GCGR) (human, UniProt P47871 26-477)
Chain of glucagon receptor (GCGR) (P47871 26-477): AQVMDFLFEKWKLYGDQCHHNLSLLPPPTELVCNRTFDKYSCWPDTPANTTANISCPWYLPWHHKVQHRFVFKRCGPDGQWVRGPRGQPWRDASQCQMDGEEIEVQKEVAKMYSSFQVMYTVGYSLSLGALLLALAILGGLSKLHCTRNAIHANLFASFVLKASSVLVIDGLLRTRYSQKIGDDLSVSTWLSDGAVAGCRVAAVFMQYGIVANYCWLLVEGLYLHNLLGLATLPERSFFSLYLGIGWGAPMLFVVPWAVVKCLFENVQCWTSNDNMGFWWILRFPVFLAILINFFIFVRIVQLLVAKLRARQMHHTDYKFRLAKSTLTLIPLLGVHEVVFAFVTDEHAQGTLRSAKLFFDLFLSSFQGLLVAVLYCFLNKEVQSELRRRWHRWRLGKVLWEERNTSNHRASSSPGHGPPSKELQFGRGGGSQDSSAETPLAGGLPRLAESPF

GLP-1 receptor (GLP-1R) = GLP-1 receptor (GLP-1R) (human, UniProt P43220 24-463)
[1] = molecular target: T1, glucose-dependent insulinotropic peptide (gastric inhibitory polypeptide) receptor (GIPR) (human, UniProt P48546 22-466)
T1 sequence (looked up): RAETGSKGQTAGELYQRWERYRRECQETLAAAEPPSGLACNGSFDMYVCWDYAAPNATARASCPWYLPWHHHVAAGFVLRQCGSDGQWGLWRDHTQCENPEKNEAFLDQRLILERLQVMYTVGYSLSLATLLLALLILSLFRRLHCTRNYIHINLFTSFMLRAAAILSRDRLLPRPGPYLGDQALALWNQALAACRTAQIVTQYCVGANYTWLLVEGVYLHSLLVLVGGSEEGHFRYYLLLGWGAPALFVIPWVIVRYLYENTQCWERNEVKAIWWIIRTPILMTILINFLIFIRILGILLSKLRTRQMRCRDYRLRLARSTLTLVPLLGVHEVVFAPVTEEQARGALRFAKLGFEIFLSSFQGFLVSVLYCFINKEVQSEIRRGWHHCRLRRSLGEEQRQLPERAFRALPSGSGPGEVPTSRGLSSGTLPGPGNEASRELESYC

Row | Binder | Primary assay EC50 (cAMP), Gluc-R, first run (glucagon receptor (GCGR)) [nM] | Primary assay EC50 (cAMP), Gluc-R, second run (glucagon receptor (GCGR)) [nM] | Primary assay EC50 (cAMP), GLP-1R n1 (GLP-1 receptor (GLP-1R)) [nM] | Primary assay EC50 (cAMP), GLP-1R n2 (GLP-1 receptor (GLP-1R)) [nM] | Primary assay EC50 (cAMP), Mean pM GLP-1R (GLP-1 receptor (GLP-1R)) [pM] | Primary assay EC50 (cAMP), GIP-R, first run [1] [nM] | Primary assay EC50 (cAMP), GIP-R, second run [1] [nM]
1 | H[Aib]EGS[αMeF]TSDV[αMeS]S[αMeF]LEGEAA[αMeK]E[αMeF]IA[αMeF]VVK([γGlu-γGlu-γGlu-Stearoyl])GG-NH2 (N-terminus assumed; SMILES CCCCCCCCCCCCCCCCCC(=O)N[C@@H](CCC(=O)N[C@@H](CCC(=O)N[C@@H](CCC(=O)NCCCC[C@H](NC(=O)[C@@H](NC(=O)[C@@H](NC(=O)[C@](C)(Cc1ccccc1)NC(=O)[C@H](C)NC(=O)[C@@H](NC(=O)[C@](C)(Cc1ccccc1)NC(=O)[C@H](CCC(=O)O)NC(=O)[C@](C)(CCCCN)NC(=O)[C@H](C)NC(=O)[C@H](C)NC(=O)[C@H](CCC(=O)O)NC(=O)CNC(=O)[C@H](CCC(=O)O)NC(=O)[C@H](CC(C)C)NC(=O)[C@](C)(Cc1ccccc1)NC(=O)[C@H](CO)NC(=O)[C@](C)(CO)NC(=O)[C@@H](NC(=O)[C@H](CC(=O)O)NC(=O)[C@H](CO)NC(=O)[C@@H](NC(=O)[C@](C)(Cc1ccccc1)NC(=O)[C@H](CO)NC(=O)CNC(=O)[C@H](CCC(=O)O)NC(=O)C(C)(C)NC(=O)[C@@H](N)Cc1c[nH]cn1)[C@@H](C)O)C(C)C)[C@@H](C)CC)C(C)C)C(C)C)C(=O)NCC(=O)NCC(N)=O)C(=O)O)C(=O)O)C(=O)O) [SEQ ID NO 184] | 26 | 26 | 0.047 | 0.012 | 29.5 | 26 | 26
2 | H[Aib]EGS[αMeF]TSDV[αMeS]S[αMeF]LEGEAA[αMeK]E[αMeF]IA[αMeF]VVK([Ahx-Stearoyl])GG-NH2 (N-terminus assumed; SMILES CCCCCCCCCCCCCCCCCC(=O)NCCCCCC(=O)NCCCC[C@H](NC(=O)[C@@H](NC(=O)[C@@H](NC(=O)[C@](C)(Cc1ccccc1)NC(=O)[C@H](C)NC(=O)[C@@H](NC(=O)[C@](C)(Cc1ccccc1)NC(=O)[C@H](CCC(=O)O)NC(=O)[C@](C)(CCCCN)NC(=O)[C@H](C)NC(=O)[C@H](C)NC(=O)[C@H](CCC(=O)O)NC(=O)CNC(=O)[C@H](CCC(=O)O)NC(=O)[C@H](CC(C)C)NC(=O)[C@](C)(Cc1ccccc1)NC(=O)[C@H](CO)NC(=O)[C@](C)(CO)NC(=O)[C@@H](NC(=O)[C@H](CC(=O)O)NC(=O)[C@H](CO)NC(=O)[C@@H](NC(=O)[C@](C)(Cc1ccccc1)NC(=O)[C@H](CO)NC(=O)CNC(=O)[C@H](CCC(=O)O)NC(=O)C(C)(C)NC(=O)[C@@H](N)Cc1c[nH]cn1)[C@@H](C)O)C(C)C)[C@@H](C)CC)C(C)C)C(C)C)C(=O)NCC(=O)NCC(N)=O) [SEQ ID NO 185] | 28 | 28 | 0.38 | 0.12 | 251 | 28 | 28
3 | H[Aib]EGS[αMeF]TSDV[αMeS]S[αMeF]LEGEAA[αMeK]E[αMeF]IA[αMeF]VVK([Ahx-Ahx-Ahx-Stearoyl])GG-NH2 (N-terminus assumed; SMILES CCCCCCCCCCCCCCCCCC(=O)NCCCCCC(=O)NCCCCCC(=O)NCCCCCC(=O)NCCCC[C@H](NC(=O)[C@@H](NC(=O)[C@@H](NC(=O)[C@](C)(Cc1ccccc1)NC(=O)[C@H](C)NC(=O)[C@@H](NC(=O)[C@](C)(Cc1ccccc1)NC(=O)[C@H](CCC(=O)O)NC(=O)[C@](C)(CCCCN)NC(=O)[C@H](C)NC(=O)[C@H](C)NC(=O)[C@H](CCC(=O)O)NC(=O)CNC(=O)[C@H](CCC(=O)O)NC(=O)[C@H](CC(C)C)NC(=O)[C@](C)(Cc1ccccc1)NC(=O)[C@H](CO)NC(=O)[C@](C)(CO)NC(=O)[C@@H](NC(=O)[C@H](CC(=O)O)NC(=O)[C@H](CO)NC(=O)[C@@H](NC(=O)[C@](C)(Cc1ccccc1)NC(=O)[C@H](CO)NC(=O)CNC(=O)[C@H](CCC(=O)O)NC(=O)C(C)(C)NC(=O)[C@@H](N)Cc1c[nH]cn1)[C@@H](C)O)C(C)C)[C@@H](C)CC)C(C)C)C(C)C)C(=O)NCC(=O)NCC(N)=O) [SEQ ID NO 187] | 26 | 26 | 0.064 | 0.031 | 47.4 | 26 | 26
4 | H[Aib]EGS[αMeF]TSDV[αMeS]S[αMeF]LEGEAA[αMeK]E[αMeF]IA[αMeF]VVK([γGlu-γGlu-Stearoyl])GG-NH2 (N-terminus assumed; SMILES CCCCCCCCCCCCCCCCCC(=O)N[C@@H](CCC(=O)N[C@@H](CCC(=O)NCCCC[C@H](NC(=O)[C@@H](NC(=O)[C@@H](NC(=O)[C@](C)(Cc1ccccc1)NC(=O)[C@H](C)NC(=O)[C@@H](NC(=O)[C@](C)(Cc1ccccc1)NC(=O)[C@H](CCC(=O)O)NC(=O)[C@](C)(CCCCN)NC(=O)[C@H](C)NC(=O)[C@H](C)NC(=O)[C@H](CCC(=O)O)NC(=O)CNC(=O)[C@H](CCC(=O)O)NC(=O)[C@H](CC(C)C)NC(=O)[C@](C)(Cc1ccccc1)NC(=O)[C@H](CO)NC(=O)[C@](C)(CO)NC(=O)[C@@H](NC(=O)[C@H](CC(=O)O)NC(=O)[C@H](CO)NC(=O)[C@@H](NC(=O)[C@](C)(Cc1ccccc1)NC(=O)[C@H](CO)NC(=O)CNC(=O)[C@H](CCC(=O)O)NC(=O)C(C)(C)NC(=O)[C@@H](N)Cc1c[nH]cn1)[C@@H](C)O)C(C)C)[C@@H](C)CC)C(C)C)C(C)C)C(=O)NCC(=O)NCC(N)=O)C(=O)O)C(=O)O) [SEQ ID NO 183] | 27 | 27 | 0.064 | 0.018 | 40.9 | 27 | 27
5 | H[Aib]EGS[αMeF]TSDV[αMeS]S[αMeF]LEGEAA[αMeK]E[αMeF]IA[αMeF]VVK([Ahx-Ahx-Stearoyl])GG-NH2 (N-terminus assumed; SMILES CCCCCCCCCCCCCCCCCC(=O)NCCCCCC(=O)NCCCCCC(=O)NCCCC[C@H](NC(=O)[C@@H](NC(=O)[C@@H](NC(=O)[C@](C)(Cc1ccccc1)NC(=O)[C@H](C)NC(=O)[C@@H](NC(=O)[C@](C)(Cc1ccccc1)NC(=O)[C@H](CCC(=O)O)NC(=O)[C@](C)(CCCCN)NC(=O)[C@H](C)NC(=O)[C@H](C)NC(=O)[C@H](CCC(=O)O)NC(=O)CNC(=O)[C@H](CCC(=O)O)NC(=O)[C@H](CC(C)C)NC(=O)[C@](C)(Cc1ccccc1)NC(=O)[C@H](CO)NC(=O)[C@](C)(CO)NC(=O)[C@@H](NC(=O)[C@H](CC(=O)O)NC(=O)[C@H](CO)NC(=O)[C@@H](NC(=O)[C@](C)(Cc1ccccc1)NC(=O)[C@H](CO)NC(=O)CNC(=O)[C@H](CCC(=O)O)NC(=O)C(C)(C)NC(=O)[C@@H](N)Cc1c[nH]cn1)[C@@H](C)O)C(C)C)[C@@H](C)CC)C(C)C)C(C)C)C(=O)NCC(=O)NCC(N)=O) [SEQ ID NO 186] | 27 | 27 | 0.13 | 0.05 | 87.5 | 27 | 27
6 | H[Aib]EGS[αMeF]TSDV[αMeS]S[αMeF]LEGEAA[αMeK]E[αMeF]IA[αMeF]VVK([γGlu-Stearoyl])GG-NH2 (N-terminus assumed; SMILES CCCCCCCCCCCCCCCCCC(=O)N[C@@H](CCC(=O)NCCCC[C@H](NC(=O)[C@@H](NC(=O)[C@@H](NC(=O)[C@](C)(Cc1ccccc1)NC(=O)[C@H](C)NC(=O)[C@@H](NC(=O)[C@](C)(Cc1ccccc1)NC(=O)[C@H](CCC(=O)O)NC(=O)[C@](C)(CCCCN)NC(=O)[C@H](C)NC(=O)[C@H](C)NC(=O)[C@H](CCC(=O)O)NC(=O)CNC(=O)[C@H](CCC(=O)O)NC(=O)[C@H](CC(C)C)NC(=O)[C@](C)(Cc1ccccc1)NC(=O)[C@H](CO)NC(=O)[C@](C)(CO)NC(=O)[C@@H](NC(=O)[C@H](CC(=O)O)NC(=O)[C@H](CO)NC(=O)[C@@H](NC(=O)[C@](C)(Cc1ccccc1)NC(=O)[C@H](CO)NC(=O)CNC(=O)[C@H](CCC(=O)O)NC(=O)C(C)(C)NC(=O)[C@@H](N)Cc1c[nH]cn1)[C@@H](C)O)C(C)C)[C@@H](C)CC)C(C)C)C(C)C)C(=O)NCC(=O)NCC(N)=O)C(=O)O) [SEQ ID NO 182] | 28 | 28 | 0.13 | 0.052 | 89.9 | 28 | 28
